In the nanobody polyreactivity screen of Harvey et al. (2022):

Experiment: yeast display, Sf9 membrane polyspecificity reagent, FACS + sequencing; frameworks hold sequencing errors
Method in brief: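 Using colony PCR, genes from sorted yeast display clones were amplified, then sequenced on MiSeq at 2 × 250 and filtered by CDR length. The clones had been stained with 10% biotinylated, detergent-solubilized Sf9 membrane reagent for 1 hour at 4 °C and sorted by FACS into low and high (top ~1%) gates on anti-HA and streptavidin fluorescence. Polyreactivity labels come from the gate of origin.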

Sequence	polyreactivity (PSR sort gate)
QVQLVESGGGLVQAGGSLRLSCAASGYTFYRYAMGWYRQAPGKERELVASITRSGGSTYYADSVKGRFTISRDNAKNTVYLQMNSLKPEDTAVYYCAAEYEFGHSSTPMDYWGQGTQVTVSS	high polyreactivity
QVQLVESGGGLVQAGGSLRLSFAASGRIIRGYAMGRDRQAPGKERELVAAINGGDSTFADSVKGRFTISRDNAKNTVYLQMNSLKPEDTAVYYCAAAHYFLGPQGASFYYWGQGTQVTVSA	low polyreactivity
QVQHVESGGGLVQAGGSLRLSCAASGFIFSWNAMGWYRQAPGKERELVAGISWSGGSTYYADSVKGRFTISRDNAKNTVYLQMNRLKPEDTAVYYCAKEPSVGTGGVYRYGRGDYWGQGTQVTVSS	low polyreactivity
QGQLVESGGGLVQAGGSLRLSCAASGSIFDLNAMGWYRQAPGKERELVAAISSGGGTYYADSVKGRFTISRDNAKNTVYLQMNCLKPEDTAVYYCNRVTRWTYNYWGQGTQVTVSS	high polyreactivity
QVQLVESGGGLVQAGGSLRLSCAASGFTFYGYAMGWYRQAPGKERELVAAITSGGITNYADSVKGRFTISRDNAKNTVYLQMNSLKPEDTAVYYCNVKRRVSGYYGYKYYYWGQGTQVTVSS	high polyreactivity
QVHLVESGGGLVQAGGSLRLSCAASGSTFYANLMGWYRQAPGKESELVAAIDGSGGRTYYADSVKGRFTISRDNAKNTVYLQMNSLKPEDTAVYYCAKKRIVPVIQFGRDYNYWGQGTQVTVSS	high polyreactivity
QVQLVESGGGLVQAGGSLRLSCAASGRIFQKYAMGWYRQAPGKERELVAVITGRGGSTYYADSVKGRFTISRDNAKNTVFLLMNSLKKEDTAVYYCASVPGYWGQGTQVTVSS	high polyreactivity
QVQLVESGGGLVQAGGSLRLSCAASGRTFFVNAMGWYRQAPGKERELVAAITWSGGSTYYADSVKGRFTISRDNAKNTVYLQMNSLKPEDTAVYYCAAEYYSYSYSYYYYGYEYWGQGTQVTVSS	high polyreactivity
QVQLVESGGGLVQAGGSLRLSCDASGSTFPKYAMGWYRQAHGKERELVAAITSSGGRTFYADSVKGRFTISRDNAKNTVYLQMNSLKPEDTAVYYCAAYYYSWSGAFIYDYWGQGTQVTVSS	high polyreactivity
QVQLVESGGGLVQAGGSLRLSCAASGSIFGAYGMGWYRQAPGKEREFVAAITGRGSTTYYADSVKGRFTISRDNAKNTVYLQMTSLKPEDTAVYYCNTRYRGLYHYPMGSWGQGTQVTVSS	high polyreactivity
QVQLVESGGGLVQAGGSLRLSCAASGRTFGVYAMGWYRQAPGKERELVAAIRWSGGGTYYADSVKGRFTISRDNAKNTVYLQMISLKPEDTAVYYCAATFQNSPYTRYTDMYYWGQGTQVTVSS	low polyreactivity
QVQLVESGGGLVQAGGSLRLSCAASGFTIWDYAMGWYRQAPGKERELVAAISWSGGSTYYADSVKGRFTISRDNAKNTVYLQMNSLKPEDTAVYYCNAVHYSHHGYDYWGQGTQVTVSS	low polyreactivity
QVQLVESGGGLVQAGGSLSLSCAASGRIFGRYAMGWYRQAPGTERVLVAVISSGGSKYYADSVKGRFTISRDNAKNTVYLQMNSLKPEDTAVYYCAAVNRRGYDYWGQGTQVTVSS	low polyreactivity
QVQLVESGGGLVQAGGSLRLSCAASGGTFPTNAMGWYRQAPGKERELVAAITSSGVRTYYADSVKGRFTISRDNAKNTVYLQMNSLKPEDTAVYYCATYSYTWMNYYWGQGTQVTVSS	high polyreactivity
QVQLVESGGGLVQAGGSLRLSCAASGSIFQPYAMGWYRPAPGKERELVAAINGRGGSTHYADSVKGRFTISRDNAKNTVYLQMNSLNPEDTAVYYCAATWAYPGSGYVYFYGNDYWGQGTQVTVSS	high polyreactivity
QVQLVESGGGLVQAGGSLRLSCAASGITFKRYAMGWYRQAPGKERELVAAINGSGGRTYYADSVKGRFTISRDNAKNTVYLQMNSLKPEDTAVYYCNARHIYPSHYDYWGQGTQVTVSS	high polyreactivity
QVQLQESGGGLVQAGGSLRLSCAASGTFSPLPAMGWYRQAPGKERECVAGNDTGAITNYADSVKGRFTISRDNAKNTVYLQMNSLKPDDTAVYYCAVFPAAYVYYVRYYTYWGQGTQVTVCS	low polyreactivity
QVQLVESGGGLVQAGGSLRLSCAASGSIFMRYSMGWYRQAPGKDRELVAAITRSGGSTYYADSVKGRFTISRDNAKNTVYLQMNSLKPEDTAVYFCAAYTFVTVGYDYWGQGTQVTVSS	high polyreactivity
QVQLVESAGGLVQAGGSLRLSCAATGSTVDRNGMGWYRQAPGKERELVASISGRGGSTYYADSVKGRFTISRDHAKNTVYLQMNRLKPEDTAVYYCAVRYGFFSRYNSWGQGTQVTVSS	high polyreactivity
QVQLVESGGGLVQAGGSLRLSCAASGSIFKWYAMGWSRQAPGKERELVAAITNGGGSTYYADSVKGRFTISRDNAKNTVYLQMNSLKAEDTAVYYCAKDGHSYYPWVYDYWGQGTQVTVSS	low polyreactivity
QVQLVESGGGLVQAGGSLRLSCAASGSTFKKYAMGWYRLAPGKERELVAAITGSGGRTYYADSVKGRFTISRDNAKNTVDLQMNSLKPEDTAVYYCAKLNNYGYDYWGQGTQVTVSS	high polyreactivity
QVQLVESGGGLVQAGGSLRLSCAASGRTFVYYTMGWYRQAPGKERELVAGIRRRGGRTYYADSVKGRFTISRDNAKNTVYLQMNSLKPEDTAVYYCAAQTRYQGYQEYYYWGQGTQVTVSS	high polyreactivity

Sequence	polyreactivity (PSR sort gate)
QVQLVESGGGLVQAGGSLRISCAASGRIFIWYDMGWYRQAPGKERELVAAITQSDDITYYADSVKGRFTISRDNAKNTVYLQMNSLKPEDTAVYYCAARVLETSTPYGYWGQGTQVTVSS	low polyreactivity
QVQLVESGGGLVQAGGSLRLSCAASGIIFARYAMGWYRQAPGKERELVAAITRRAVSTYYADSVKGRFTISRDNAKNTVYLQMNSLKPEDTAVYYCAADRASYFTYAYGYWGQGTQVTVSS	high polyreactivity
QDQLVESGGGLVQAGGSLRLSCAASGSTLGYNAMGWYRQAPGKERELVAAIRGGDDDTYYADSVKGRFTISRDNAKNTVYLQMNSLKPEDTAVYYCATGDTSIPYSTPGGYDSWGQGTQVTVSS	low polyreactivity
QVHLVESGGGLVQAGGSLRLSCAASGFTFIRNGMGSYRQAPGKERELVAAINSRGGNTYYADSVKGRFTISRDNAKNTVYLQMNSLKPEDTAVYYCNRVVQRWSTQYGYWGQGTQVTVSS	high polyreactivity
QVQLVESGGGLVQAGGSLRLSCAASGSTFGPNAMGWYRQAPGKERELVATISFRGGTTYYADSVKGRFTISRDHAKNTVYLQMNSLKPEDTAVYYCAVKVGYVRLLYHYYYWGQGTQGTVSS	high polyreactivity
QVQLVESGGGLVQAGGSLRLSCAASGFIFRLNTMGWYRQAPGKERELVATISSGGSTNYADSVKGRFTISRDNAKITVYLQMNSLKPEDTAVYYCAKKKTRYGGSYNYWGQGTQVTVSS	high polyreactivity
QVQLVESGGGLVQAGGSLRLSCAASGSTFGIYAMGWYRQAPGKERELVATISWGGGDTYYADSVKGRFTISRDNAKNTVYLQMNSLKPEDTAVYYCAADLWYGKTSGSTTPDPYDYWGQGTQVTVSS	low polyreactivity
QVQLVESGGGLVQAGGSLRLSCAASGITFYYYAMGWYRQAPGKERELVASISSVGTTYYADSVKGRFTISGDNAKNTFYLEMNSLKPVDTAVYYCAAVDYVRYYPDEFDYWGQGTQVTVSS	low polyreactivity
QVQLVESGGGLVQAGGSVRLSCAASGISFQYNALGWYRQAPGTERELVAGITWSGTSTYFADSVKGRFTISRDNAKNTVYLQLNSMKPEDTAVYYCAAVRGYRGYDYWGQGTQGTVSS	high polyreactivity
QVQLVESGGGLVQAGGSLRLICAASGRTFFYYAMGWYRQAPGKEREFVAAISWSAGSTYYADSVKGRFTISRDNAKITVSLQMNSLKPKDTGVYYCAAARPSGGGFDYWGQGTQVTVSS	high polyreactivity
QVQRVESGGGLVQAGGSLRLSCAASGRIFNWYVMGWKRQAPGKERELVAAINSGGITKYADSVKGRFTISRDNAKNTVYLQMNSLKPEDSAVYYCAAYYRRYDYDYWGQGTQVTVSS	high polyreactivity
QVQHVESGGGLVQAGGTLRLSSAASGSTYRWYAMGSYRQAPGKERELVAAITFRGGRTYYADSVKGRFTISRDNAKNTVYLQMNSLKPEDTAVYYFNAVTYSSPYRFDYWGQGTQVTVSS	low polyreactivity
QVQLVESGGGLVQARGSLRLSCAATGLTFYSNAMGWSRQAPGKERELVARISTGGSTYADSVKGRFTISRDNAKNTVYLQMNSLKPEDTAVYYCAKLPPRGIDDEYWGQGTQVTVSS	low polyreactivity
QVQLVESGGGLVQAGGSLRLSCAASGRIFIFNAMGWYRQAPGKERELVAAISTRGGSTRYADSVKGRFTISRDNAKNTVYLQMNSLKPEDTAVYYCAAVYLYYAYAFDYWGQGTQVTVSS	high polyreactivity
QVQLVESGGGLVQAGGSLRLSCAASGRTFRFNAMGWYRQAPGKEREFVAAITSGGGTYYADSVKGRFTISRDNGKNTVYLQMNSLKPEDTAVYYCATVGKVHHRLVAMDYWGQGTQVTVSS	low polyreactivity
QVQLVESGGGIVQAGGSLRLSCAASGRTFSTYAMGWYRQAPGKESELVARITSSGGSTYYADSVKGRFTISRDNAKNTVYFQMNSLKPEDTAVYYCAARPLVRYRMQWTGGYYYWGQGTQVTVSS	high polyreactivity
QVQLVESGGGLVQAGGSLRLSCAASGSIFSHNAMGGYRQAPGKERELVASITGSGGSTYYAASVKGRFTISRDNAKNTVYLQMNSLKPEDTAVYYCAATYYPDVRGMDYWGQGTQVTVSS	low polyreactivity
QVQLVESGGGLVQAGGSLRLSCAASGSIYYYYAMGWYRQAPGKERELVAAIRRRGGTTYYADSVKGRFTISRDNAKNTVSLQMISLKPEDTAVYYCAARSKSAYWGQGTQVTVSS	high polyreactivity
QDQLVESGGGLLQAGGSLRLSCAASGLTFSDYAMGWYRQAPGKEREFVAAITRNGGSTRYADSVKGRFTISRDNAKNTVYVQMNSVKPEDTAVFYCHKVSFVYSRSKGFYYTYLKFEYWGQGTQVTVSS	low polyreactivity
QVQLVESGGGLFQAGRSLRLSSPASGSSFISYAMGWYRQAPGKDRELVAAITSRGGRTYYADSVKGRFTISRDNAKYTVDLQMNCLKPDDTAVYYCAASFSYRIRRYDYWGQGTQVTVSS	high polyreactivity
QVQLVVSGGGLVQAGGSLRLSCAASGFTFRYYAMGWYRQAPGKEREMVAAITRGAGSTYYADSVKGRFTITRDNAKNTVYLQMNSLKPEDTAVYYCAAEFFQYYVATPFDPYNYWGQGTQVTVSS	low polyreactivity
